Target: T1, HER2 on SK-BR-3 human breast cancer cells (human, UniProt P04626 23-1255)
T1 construct: whole, on cells; also called SK-BR-3 cells; whole cell (SK-BR-3)
Assay: flow cytometry on SK-BR-3 cells, human IgG1, anti-human IgG-FITC detection
Method: Following washes in PBS containing 1% BSA, secondary antibody anti-human IgG-FITC (Sigma) was added for 30 min on ice. Fluorescence intensity of the live cell population was recorded using FACSCalibur (BD Biosciences) and analyzed using FlowJo 7.6.5 software (Tree Star).

| Binder | EC50 [µg/mL] |
| --- | --- |
| 4D5 as human IgG1, VH 30D (30D/WT) (antibody, V domains shown) VH: QVQLVESGGGLVQPGGSLRLSCAASGFNIDDTYIHWVRQAPGKGLEWVARIYPTNGYTRYADSVKGRFTISADTSKNTAYLQMNSLRAEDTAVYYCSRWGGDGFYAMDVWGQGTLVTVSS VL: not shown | 0.827 |
| 4D5 as human IgG1, VH 30D and VL 52D (30D/52D) (antibody, V domains shown) VH: QVQLVESGGGLVQPGGSLRLSCAASGFNIDDTYIHWVRQAPGKGLEWVARIYPTNGYTRYADSVKGRFTISADTSKNTAYLQMNSLRAEDTAVYYCSRWGGDGFYAMDVWGQGTLVTVSS VL: QIQMTQSPSSLSASVGDRVTITCRASQDVNTAVAWYQQKPGKAPKLLIYSADFLESGVPSRFSGSRSGTDFTLTISSLQPEDFATYYCQQHYTTPPTFGQGTKVEIK | 0.978 |
